From patent US20220195061A1 (Novartis, published 2022)

Biological target: human CD40 on cells (human, UniProt P25942 21-277)
Assay: cell-based or functional assay

Chain of human CD40 on cells (P25942 21-277 limits assumed): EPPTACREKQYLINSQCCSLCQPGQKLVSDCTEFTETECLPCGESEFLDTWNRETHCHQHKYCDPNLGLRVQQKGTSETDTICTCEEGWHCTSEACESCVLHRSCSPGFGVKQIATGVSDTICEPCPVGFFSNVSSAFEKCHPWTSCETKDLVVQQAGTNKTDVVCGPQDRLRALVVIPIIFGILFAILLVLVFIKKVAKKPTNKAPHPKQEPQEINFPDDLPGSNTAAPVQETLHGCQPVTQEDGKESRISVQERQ

B1: CFZ533 (antibody, human IgG1, kappa, N297A)
heavy: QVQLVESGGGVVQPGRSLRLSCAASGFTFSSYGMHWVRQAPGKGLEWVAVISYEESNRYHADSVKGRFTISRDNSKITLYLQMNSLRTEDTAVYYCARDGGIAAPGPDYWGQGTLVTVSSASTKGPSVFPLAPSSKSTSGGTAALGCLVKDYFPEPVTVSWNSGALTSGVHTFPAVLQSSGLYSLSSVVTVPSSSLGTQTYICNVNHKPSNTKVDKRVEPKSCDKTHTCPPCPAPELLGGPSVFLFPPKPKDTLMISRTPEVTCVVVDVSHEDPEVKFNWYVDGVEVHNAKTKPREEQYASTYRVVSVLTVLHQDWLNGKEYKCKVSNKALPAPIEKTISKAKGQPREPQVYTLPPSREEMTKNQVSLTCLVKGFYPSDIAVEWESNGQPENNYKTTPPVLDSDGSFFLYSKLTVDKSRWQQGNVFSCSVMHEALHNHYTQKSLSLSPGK
light: DIVMTQSPLSLTVTPGEPASISCRSSQSLLYSNGYNYLDWYLQKPGQSPQVLISLGSNRASGVPDRFSGSGSGTDFTLKISRVEAEDVGVYYCMQARQTPFTFGPGTKVDIRRTVAAPSVFIFPPSDEQLKSGTASVVCLLNNFYPREAKVQWKVDNALQSGNSQESVTEQDSKDSTYSLSSTLTLSKADYEKHKVYACEVTHQGLSSPVTKSFNRGEC
- IC50 (read off the curve), rCD154-induced CD69 expression on CD20pos B cells: ~0.1 µg/mL
